Test results reported in PMC4485890, “Structural Basis for the Specificity of Human NUDT16 and Its Regulation by Inosine Monophosphate” (PLoS ONE, 2015).
Substitutions are numbered along the chain they refer to. In names and notes the source's numbering stands.

B1: human NUDT16 A22V (construct used for crystallography) (enzyme, UniProt Q96DE0 1-195, looked up)
chain: MAGARRLELGEALALGSGWRHVCHALLYAPDPGMLFGRIPLRYAILMQMRFDGRLGFPGGFVDTQDRSLEDGLNRELREELGEAAAAFRVERTDYRSSHVGSGPRVVAHFYAKRLTLEELLAVEAGATRAKDHGLEVLGLVRVPLYTLRDGVGGLPTFLENSFIGSAREQLLEALQDLGLLQSGSISGLKIPAHH
notes: human NUDT16, full length, from MGC cDNA BC031215, which carries a mutation that replaces Ala22 by Val; A22V was already in the purchased cDNA and was not introduced by the authors; A TEV protease site follows the His6 tag; no cleavage is described for the crystallography sample; One monomer lies in the asymmetric unit and the dimer is formed by crystallographic symmetry; also called apo-NUDT16; …
B2: human NUDT16 wild-type (sample for analytical gel filtration) (enzyme, UniProt Q96DE0 1-195, looked up)
chain: B1 chain with V22A
notes: human NUDT16 wild-type (Ala22); expression and purification for gel filtration are described only in S1 Text

How the values were obtained:
[1] = target: the molecule itself; experiment: crystal structure; apo form (1.80 Å) and IMP/Mg2+-bound form (1.72 Å), space group F23; one monomer in the asymmetric unit, dimer with a symmetry-related molecule
[2] = target: the molecule itself; experiment: SEC; analytical gel filtration of NUDT16 wild-type against standard proteins; protocol in S1 Text

Protein | binding result [1] | stoichiometry N [2]
B1 | binds | –
B2 | – | 2
